Laboratory results reported in publication PMC7246916, “14-3-3 Proteins and Other Candidates form Protein-Protein Interactions with the Cytosolic C-terminal End of SOS1 Affecting Its Transport Activity” (International Journal of Molecular Sciences, 2020).

T1: recombinant (10xHis)-labelled At14-3-3ω (Arabidopsis thaliana, UniProt Q01525 1-259)
T1 construct: 14-3-3 isoform omega, Arabidopsis thaliana; Construct details are in the Suppl; Methods; also called His-tagged 14-3-3ω protein; source: host in the Suppl; Methods
T1 sequence (looked up): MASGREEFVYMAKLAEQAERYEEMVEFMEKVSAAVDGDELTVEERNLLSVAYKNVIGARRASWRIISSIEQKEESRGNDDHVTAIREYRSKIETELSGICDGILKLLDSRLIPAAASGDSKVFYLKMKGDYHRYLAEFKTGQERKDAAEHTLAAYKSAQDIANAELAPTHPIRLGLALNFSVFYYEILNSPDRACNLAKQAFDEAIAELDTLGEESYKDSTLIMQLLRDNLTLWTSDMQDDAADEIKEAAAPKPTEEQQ

B1: SOS1 C-term 15-mer peptide, spot H13 (peptide)
peptide: TRQNTMVESSDEEDE
notes: SOS1 (NHX7), Arabidopsis thaliana; source: synthetic peptide, immobilized on a cellulose membrane
B2: SOS1 C-term 15-mer peptide, spot H14 (peptide)
peptide: NTMVESSDEEDEDEG
notes: as for B1

Molecular target: T1, recombinant (10xHis)-labelled At14-3-3ω
Experiment: peptide or protein array; 15-mer synthetic peptides of SOS1 from amino acid 446, overlapping by 12, spotted on a cellulose membrane; incubated with recombinant 10xHis-14-3-3ω; anti-His antibody, HRP-coupled anti-mouse antibody, ECL
Conditions: both partners purified

| binding result | Binder |
| --- | --- |
| binds | B1 |
| binds | B2 |
